The source of these data is IntAct's records for PubMed 24291789.

To fix the notation:
B1: Cohesin subunit psc3 (Schizosaccharomyces pombe (strain ATCC 38366 / 972)), O13816 (parent)
chain: MSESVTTGSDDDGGDRESSPVMLSQSFDPMSSSSNSSSEENSDDDYEKTISSKKRHPRPNSKGVNVKRSRRNAIVEEDPQEEIFNNLFAFLLDQKVDTMDIAVSWFADYAKDNQSALANLINFILKCCGCNRAINVFDVQDQDSASATLSQIQLSVERTSTRDYPLNSKNLKFRNFRKRLTGLLSNFVSQLSIRNYLYNSTVFEDIMSWVVAMSSSTMRPIRHTATVFCLNIMTFLCEKSKELLNEHAIATKQLEKEEKRSRVNRNRINELNNSLGEIVKQQDTLTTYLNDYFDSVFVHRYRDVEPKIRVDCLQELGVWINTVPSIFFSGSYLRYLGWMLSDINTTVRLTVVKVLRKFFETDSFIGGLRHFSSRFKERILEMSCVDADIGVRVASIRLCNAMRTCGFLENSEILKVLKLILDINPRVQREAVLFLCKVVDESVNEKIDLWGEEDYILKAFSQTSLTTFSVHWIKFSQMCKLLEEVRLSYQSSFDYDTLLRIFQKNGNFITPITQALLNACEIDSIYQSWEDISNFVLFDNYTSTLKDPIDSILSFCKLNDFQESILLQLLSASIQTVCNNNFITPKTVHNKQAAETTNDQNKDKDLLYLNLLPYINSITERNSASPTLLHDSLRLLFSMDLTEMTDPQLSRHFELLINNLKKFFLTNNDLQIIQGCTILFLRLDSIPALKEDLKLLVTDICDQTVTEFLKNFGSFNIQDAVITKDEFVIFEACLTRIEGCTSLKDFSDYPEFDIIYERLVSLLSRVPNSYEDTLKFSAINTLQSLLFWFFLRKDNPADEEKKKDDETKVFNCLINIMNNDSSKILQLQAARTFLETVIMKEGVKASHYNDDNRVSEEHNFLKPQFLDALLKILEGWLYTYAKVGQFPFKRLTQASSPHTQISLDKNPLNRRLLEHVCCDLTSKLLIVVSLSNTITPEFSQQFCELRGHYGPKLSAIVDEFLN

The variants in this assay derive from B1. The note with it: with mis4_schpo mis4, Q09725.
Chain of mis4_schpo mis4, Q09725 (Q09725 whole entry): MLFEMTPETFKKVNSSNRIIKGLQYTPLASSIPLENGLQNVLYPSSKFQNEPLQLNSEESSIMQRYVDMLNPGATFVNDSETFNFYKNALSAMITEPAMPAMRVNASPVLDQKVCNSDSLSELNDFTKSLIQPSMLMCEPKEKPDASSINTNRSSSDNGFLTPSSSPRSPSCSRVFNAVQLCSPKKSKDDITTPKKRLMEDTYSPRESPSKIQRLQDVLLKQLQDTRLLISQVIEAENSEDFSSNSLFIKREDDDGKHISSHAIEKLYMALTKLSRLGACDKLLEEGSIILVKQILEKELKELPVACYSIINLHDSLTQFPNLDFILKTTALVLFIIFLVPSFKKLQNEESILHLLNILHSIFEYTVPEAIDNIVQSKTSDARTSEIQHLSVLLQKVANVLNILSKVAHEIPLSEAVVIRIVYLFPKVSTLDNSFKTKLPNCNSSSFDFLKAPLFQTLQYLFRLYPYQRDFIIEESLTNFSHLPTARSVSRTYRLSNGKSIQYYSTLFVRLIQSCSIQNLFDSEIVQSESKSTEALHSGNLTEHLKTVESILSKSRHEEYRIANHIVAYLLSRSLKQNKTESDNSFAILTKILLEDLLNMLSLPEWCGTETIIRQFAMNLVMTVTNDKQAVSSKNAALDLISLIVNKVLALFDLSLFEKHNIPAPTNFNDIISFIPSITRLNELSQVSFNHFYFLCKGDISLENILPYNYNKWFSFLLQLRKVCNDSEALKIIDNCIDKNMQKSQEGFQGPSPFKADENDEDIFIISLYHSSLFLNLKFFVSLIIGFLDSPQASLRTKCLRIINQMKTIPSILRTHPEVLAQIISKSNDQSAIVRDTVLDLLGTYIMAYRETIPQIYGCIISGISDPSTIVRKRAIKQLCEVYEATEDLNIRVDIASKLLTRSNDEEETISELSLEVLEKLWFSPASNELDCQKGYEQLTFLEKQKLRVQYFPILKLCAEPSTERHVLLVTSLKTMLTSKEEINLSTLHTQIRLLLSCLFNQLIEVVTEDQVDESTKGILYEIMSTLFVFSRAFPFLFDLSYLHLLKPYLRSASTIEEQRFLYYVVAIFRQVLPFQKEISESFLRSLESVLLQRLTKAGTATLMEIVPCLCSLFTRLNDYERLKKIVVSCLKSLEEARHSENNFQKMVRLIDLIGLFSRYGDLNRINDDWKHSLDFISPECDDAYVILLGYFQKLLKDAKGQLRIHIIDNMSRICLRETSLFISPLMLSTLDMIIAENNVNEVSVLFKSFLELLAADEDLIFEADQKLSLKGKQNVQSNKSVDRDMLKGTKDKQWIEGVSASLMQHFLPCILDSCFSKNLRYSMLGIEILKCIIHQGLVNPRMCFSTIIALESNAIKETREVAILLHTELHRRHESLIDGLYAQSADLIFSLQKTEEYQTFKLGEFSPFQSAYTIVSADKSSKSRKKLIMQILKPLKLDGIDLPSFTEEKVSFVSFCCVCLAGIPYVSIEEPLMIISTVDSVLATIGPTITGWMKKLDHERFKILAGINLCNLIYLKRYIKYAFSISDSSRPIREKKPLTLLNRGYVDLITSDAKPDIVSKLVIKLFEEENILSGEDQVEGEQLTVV
R300G: the “effect of a mutation on the interaction” value is “decreasing interaction strength”.

Take P306L: the “effect of a mutation on the interaction” value is “decreasing interaction strength”.
